Consider 11 molecules from patent publication US20260337282 (published 2026).

Test in all cases: FACS
The target of test [1] is T1, mouse CCR8 (mouse).
T1 chain: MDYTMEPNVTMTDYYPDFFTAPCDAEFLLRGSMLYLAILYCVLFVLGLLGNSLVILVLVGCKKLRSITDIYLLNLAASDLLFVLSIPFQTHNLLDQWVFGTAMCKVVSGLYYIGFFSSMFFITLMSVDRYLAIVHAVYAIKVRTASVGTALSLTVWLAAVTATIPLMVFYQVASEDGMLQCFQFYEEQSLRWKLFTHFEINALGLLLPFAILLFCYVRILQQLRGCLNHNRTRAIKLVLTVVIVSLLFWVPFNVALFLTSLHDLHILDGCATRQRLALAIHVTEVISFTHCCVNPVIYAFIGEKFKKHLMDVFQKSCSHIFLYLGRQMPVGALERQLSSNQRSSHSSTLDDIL

Test [2] deals with human CCR8 (human).
Chain of human CCR8 (human) (chain, as listed by the source): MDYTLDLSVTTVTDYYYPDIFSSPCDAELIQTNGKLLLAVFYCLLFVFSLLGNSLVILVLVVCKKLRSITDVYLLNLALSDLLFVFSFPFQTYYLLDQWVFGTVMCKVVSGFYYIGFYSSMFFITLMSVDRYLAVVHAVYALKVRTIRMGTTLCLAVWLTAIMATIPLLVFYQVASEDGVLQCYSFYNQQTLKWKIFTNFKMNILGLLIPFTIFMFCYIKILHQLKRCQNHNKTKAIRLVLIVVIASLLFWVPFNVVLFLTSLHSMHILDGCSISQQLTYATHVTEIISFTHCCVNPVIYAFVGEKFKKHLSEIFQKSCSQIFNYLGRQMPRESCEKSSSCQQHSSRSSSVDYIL
In test [3] the target is human CCR8 (human). The source holds these as a separate data set.
The target in test [4] is T1, mouse CCR8.

Read-outs that look alike come from different tables or passages of the source.

B1: 11F5-N3S-Y5V-11F5 (antibody, V domains shown)
VH: EVQLVESGGGVVQPGRSLRLSCAASGFTFSSYVVHWVRQAPGKGLEWVAVISYDGDNKFYADSVKGRFTISRDNSKNTLYLQMNSLRTEDTAVYYCARGRSYVYYYGLDVWGQGTTVTVSS
VL: DIVMTQTPLSLSVTPGQPASISCKSSQSLLYSDGKTYLYWYLQKAGQPPQLLIYEVSNRFSGVPDRFSGSGSGTDFTLKISRVEAEDVGVFYCMQSLKVPPTFGQGTKVDIK
One may read the EC50 as the concentration that produces a half-maximal response. B1: the EC50 with mouse CCR8 [1] is 0.129 µg/mL; with human CCR8 [2], 0.228 µg/mL.

B2: 11F5-N3S-11F5 (antibody, V domains shown)
VH: EVQLVESGGGVVQPGRSLRLSCAASGFTFSSYVVHWVRQAPGKGLEWVAVISYDGDNKFYADSVKGRFTISRDNSKNTLYLQMNSLRTEDTAVYYCARGRSYYYYYGLDVWGQGTTVTVSS
VL: DIVMTQTPLSLSVTPGQPASISCKSSQSLLYSDGKTYLYWYLQKAGQPPQLLIYEVSNRFSGVPDRFSGSGSGTDFTLKISRVEAEDVGVFYCMQSLKVPPTFGQGTKVDIK
B2: the results for the EC50 in the test with mouse CCR8 [1] and with human CCR8 [2] were 0.119 µg/mL and 0.168 µg/mL, respectively.

B3: 11B12-11F8 (antibody, V domains shown)
VH: QVQLVESGGGVVQPGRSLRLSCAASGFSFSSYVMHWVRQAPGKGLEWVAVISYDGSDKYYADSVKGRFTISRDNSKNTLFLQMNSLRPEDTAVYYCARGRGYRYGQSYYYGMDVWGQGTTVTVSS
VL: DIVMTQTPLSLSVTPGQPASISCKSSQSLLYSDGKTYLYWYLQKPGQPPHLLIYEVSNRFSGVPKRFSGSGSGTDFTLKISRVEAEDVGVYYCMQSVKIPLTFGGGTKVEIK
For the molecule B3, the EC50 with human CCR8 [3] turned out to be 0.152 µg/mL; with mouse CCR8 [4] it was 0.1 µg/mL.

B4: 11F5-Y5V-Y6N-11F5 (antibody, V domains shown)
VH: EVQLVESGGGVVQPGRSLRLSCAASGFTFSSYVVHWVRQAPGKGLEWVAVISYDGDNKFYADSVKGRFTISRDNSKNTLYLQMNSLRTEDTAVYYCARGRNYVNYYGLDVWGQGTTVTVSS
VL: DIVMTQTPLSLSVTPGQPASISCKSSQSLLYSDGKTYLYWYLQKAGQPPQLLIYEVSNRFSGVPDRFSGSGSGTDFTLKISRVEAEDVGVFYCMQSLKVPPTFGQGTKVDIK
As to B4, the EC50 stood at 0.546 µg/mL with mouse CCR8 [1] and 0.592 µg/mL with human CCR8 [2].

B5: 11F5-SG-11F5-SG (antibody, V domains shown)
VH: EVQLVESGGGVVQPGRSLRLSCAASGFTFSSYVVHWVRQAPGKGLEWVAVISYSGDNKFYADSVKGRFTISRDNSKNTLYLQMNSLRTEDTAVYYCARGRNYYYYYGLDVWGQGTTVTVSS
VL: DIVMTQTPLSLSVTPGQPASISCKSSQSLLYSSGKTYLYWYLQKAGQPPQLLIYEVSNRFSGVPDRFSGSGSGTDFTLKISRVEAEDVGVFYCMQSLKVPPTFGQGTKVDIK
In the case of B5, the concentration for a half-maximal effect (EC50) with human CCR8 [3] stood at 0.033 µg/mL; in the test with mouse CCR8 [4], 0.069 µg/mL.

B6: 11B12-SG-11F8 (antibody, V domains shown)
VH: QVQLVESGGGVVQPGRSLRLSCAASGFSFSSYVMHWVRQAPGKGLEWVAVISYSGSDKYYADSVKGRFTISRDNSKNTLFLQMNSLRPEDTAVYYCARGRGYRYGQSYYYGMDVWGQGTTVTVSS
VL: DIVMTQTPLSLSVTPGQPASISCKSSQSLLYSDGKTYLYWYLQKPGQPPHLLIYEVSNRFSGVPKRFSGSGSGTDFTLKISRVEAEDVGVYYCMQSVKIPLTFGGGTKVEIK
For B6, the EC50 was determined as 0.051 µg/mL with human CCR8 [3] and 0.055 µg/mL with mouse CCR8 [4].

B7: 11F5-N3S-Y6N-11F5 (antibody, V domains shown)
VH: EVQLVESGGGVVQPGRSLRLSCAASGFTFSSYVVHWVRQAPGKGLEWVAVISYDGDNKFYADSVKGRFTISRDNSKNTLYLQMNSLRTEDTAVYYCARGRSYYNYYGLDVWGQGTTVTVSS
VL: DIVMTQTPLSLSVTPGQPASISCKSSQSLLYSDGKTYLYWYLQKAGQPPQLLIYEVSNRFSGVPDRFSGSGSGTDFTLKISRVEAEDVGVFYCMQSLKVPPTFGQGTKVDIK
Turning to B7, the results for the half-maximal effective concentration (EC50) with mouse CCR8 [1] and with human CCR8 [2] were 0.105 µg/mL and 0.174 µg/mL, respectively.

B8: 11F5-Y6N-11F5 (antibody, V domains shown)
VH: EVQLVESGGGVVQPGRSLRLSCAASGFTFSSYVVHWVRQAPGKGLEWVAVISYDGDNKFYADSVKGRFTISRDNSKNTLYLQMNSLRTEDTAVYYCARGRNYYNYYGLDVWGQGTTVTVSS
VL: DIVMTQTPLSLSVTPGQPASISCKSSQSLLYSDGKTYLYWYLQKAGQPPQLLIYEVSNRFSGVPDRFSGSGSGTDFTLKISRVEAEDVGVFYCMQSLKVPPTFGQGTKVDIK
Take B8: the EC50 with mouse CCR8 [1] amounted to 0.198 µg/mL; with human CCR8 [2], 0.254 µg/mL.

B9: 11F5-N3S-Y5V-Y6N-11F5 (antibody, V domains shown)
VH: EVQLVESGGGVVQPGRSLRLSCAASGFTFSSYVVHWVRQAPGKGLEWVAVISYDGDNKFYADSVKGRFTISRDNSKNTLYLQMNSLRTEDTAVYYCARGRSYVNYYGLDVWGQGTTVTVSS
VL: DIVMTQTPLSLSVTPGQPASISCKSSQSLLYSDGKTYLYWYLQKAGQPPQLLIYEVSNRFSGVPDRFSGSGSGTDFTLKISRVEAEDVGVFYCMQSLKVPPTFGQGTKVDIK
In the case of B9, the EC50 worked out at 0.141 µg/mL in the test with mouse CCR8 [1] and 0.21 µg/mL with human CCR8 [2].

B10: 11B12-DNA-11B12 (antibody, V domains shown)
VH: QVQLVESGGGVVQPGRSLRLSCAASGFSFSSYVMHWVRQAPGKGLEWVAVISYDGSDKYYADSVKGRFTISRDNAKNTLFLQMNSLRPEDTAVYYCARGRGYRYGQSYYYGMDVWGQGTTVTVSS
VL: DIVMTQTPLSLSVTPGQPASISCKSSQSLLYSDGKTYLYWYLQKPGQPPQILIFEVSNRFSGVPDRFSGSGSGTDFTLKISRVEAEDVGVYYCMQSIKLPLTFGGGTKVEIK
On to B10, for which the EC50 in the test with human CCR8 [3] was 0.144 µg/mL; in the test with mouse CCR8 [4], 0.084 µg/mL.

B11: 11F5-Y5V-11F5 (antibody, V domains shown)
VH: EVQLVESGGGVVQPGRSLRLSCAASGFTFSSYVVHWVRQAPGKGLEWVAVISYDGDNKFYADSVKGRFTISRDNSKNTLYLQMNSLRTEDTAVYYCARGRNYVYYYGLDVWGQGTTVTVSS
VL: DIVMTQTPLSLSVTPGQPASISCKSSQSLLYSDGKTYLYWYLQKAGQPPQLLIYEVSNRFSGVPDRFSGSGSGTDFTLKISRVEAEDVGVFYCMQSLKVPPTFGQGTKVDIK
Consider B11, for which the EC50 turned out to be 0.762 µg/mL with mouse CCR8 [1] and 0.714 µg/mL with human CCR8 [2].
